Literature values as cited in publication PMC4769797.
pKd: −log10 of the molar value.

Biological target: VEGFR1 (Homo sapiens) (UniProt P17948)
UniProt P17948, sequence (P17948 27-1338): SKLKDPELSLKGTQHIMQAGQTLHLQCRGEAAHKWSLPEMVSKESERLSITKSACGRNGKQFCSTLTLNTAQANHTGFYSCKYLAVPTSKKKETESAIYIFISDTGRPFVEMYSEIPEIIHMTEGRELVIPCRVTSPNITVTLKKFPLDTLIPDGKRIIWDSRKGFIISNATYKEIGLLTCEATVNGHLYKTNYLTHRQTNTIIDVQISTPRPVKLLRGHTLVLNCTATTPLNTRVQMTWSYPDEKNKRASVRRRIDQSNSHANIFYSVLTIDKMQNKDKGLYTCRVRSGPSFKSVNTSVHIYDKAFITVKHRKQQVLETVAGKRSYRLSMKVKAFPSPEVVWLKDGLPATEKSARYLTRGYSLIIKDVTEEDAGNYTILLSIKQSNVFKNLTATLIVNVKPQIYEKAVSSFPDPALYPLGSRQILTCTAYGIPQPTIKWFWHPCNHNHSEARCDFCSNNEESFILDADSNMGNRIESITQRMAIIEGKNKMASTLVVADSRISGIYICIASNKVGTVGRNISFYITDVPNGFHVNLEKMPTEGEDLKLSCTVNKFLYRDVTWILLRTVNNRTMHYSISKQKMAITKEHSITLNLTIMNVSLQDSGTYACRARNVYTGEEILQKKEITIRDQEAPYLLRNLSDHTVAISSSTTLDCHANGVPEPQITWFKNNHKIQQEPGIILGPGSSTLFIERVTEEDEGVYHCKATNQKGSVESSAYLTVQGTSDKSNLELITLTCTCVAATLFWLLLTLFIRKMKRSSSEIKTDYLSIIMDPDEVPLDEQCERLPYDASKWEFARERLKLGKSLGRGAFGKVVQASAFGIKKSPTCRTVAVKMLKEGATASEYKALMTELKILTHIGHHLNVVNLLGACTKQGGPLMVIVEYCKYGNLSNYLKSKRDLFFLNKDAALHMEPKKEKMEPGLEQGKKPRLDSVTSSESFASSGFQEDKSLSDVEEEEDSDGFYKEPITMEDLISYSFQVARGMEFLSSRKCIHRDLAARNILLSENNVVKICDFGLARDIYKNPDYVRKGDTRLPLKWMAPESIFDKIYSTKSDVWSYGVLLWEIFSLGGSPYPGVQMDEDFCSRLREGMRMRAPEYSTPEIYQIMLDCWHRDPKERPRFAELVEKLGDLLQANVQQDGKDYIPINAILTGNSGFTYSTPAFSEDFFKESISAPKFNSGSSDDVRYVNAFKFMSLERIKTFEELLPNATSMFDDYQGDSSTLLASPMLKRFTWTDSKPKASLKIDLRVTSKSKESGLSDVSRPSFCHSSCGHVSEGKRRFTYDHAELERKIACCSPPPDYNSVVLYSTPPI

pKd: 10.00
Substance: VEGFA (from UniProt P15692)
